Assay results taken from paper PMC11207964.

Target: EGFRvIII (UniProt P00533)
Experiment: BLI
Conditions: inverted dT at the end, BLI: association 200 s, dissociation 400 s, PBS + 0.05% Tween-20 (stated for NOTA-aptamer dissociation), protein loading at room temperature, cells: DPBS …

| Sequence | Kd (P = 2Nap-dU (5-[N-(2-naphthylmethyl)carboxamide]-2'-deoxyuridine), written as T at 5,9,13,18,19,20,25,26,27,35,42, T1 printed as T) [nM] | Kd (protein on Ni-NTA probe, 125-500 nM aptamer, PBS 0.05% Tween-20, 2Nap-dU written as T at 5,9,13,18,19,20,25,26,27,35,42, 5'-amine conjugated to p-SCN-Bn-NOTA) [nM] |
| --- | --- | --- |
| TGAGTAAGTGAGTACCGTTTGCGATTTGGAGAACTACGCAATCA [EGFRvIII aptamer (44 nt)] | 0.87 | – |
| TGAGTAAGTGAGTACCGTTTGCGATTTGGAGAACTACGCAATCA [NOTA-EGFRvIII aptamer] | – | 2.05 |
